# Reference: the DeepSol protein solubility set
# Test: soluble on expression in E. coli; label from the status in PepcDB or PDB records
row,Sequence,soluble on expression in E. coli
1,MSLNVDPNITKYMIKAKIVTDGVVEKPDVVGAIFGQTEGLLGDELDLRDLQKSGKIGRIEVEIDTKKGRTEGYVLIPSGLDQVESSILAAALETIDRIGPCKAKVEIESIEDVRINKRDRVIKRAEELYRKMGENGKSLSESIVQTVREEVEKKEIISYGEEHLPAGPAIADSDSIIVVEGRNDVLNLLRYGIKNTIAVQGTSVPKTVKELSKSRTVTLFVDGDHGGDLIIKEMLQVADVDFIARAPPGTEVEELTYKQIIKALKYKTPVEQYLETHGMIEELKEWSSRNTKELEERQGNELKNERPEKINENEESEKNVELKEGSVQKLETVPEFDPSSPESIKFKLKQLYESRELELFDGQSSVGKFPVSDAIEKIESMHGDLLITGGIISQRLLDIAYNIGVKAIYGFKIGNITKKPDDIKVVAWDHIEGHHHHHH,soluble
2,MTSGAPPTISTEKSRSKQLRKSSKRTASTVEGTEAKQMRGDTENRSDGEMDDVSTSSEIRHGNGFIENFRSQTGNSSRTTATNERIKKKLVIKNFKANANQNDVAMGDTNIDSTDGSVGRDWAVLSDNVFAILEDRKTVTTLEGLFSKVRSVCDKNQSKVLYDRLVAIVVQFAKSLKESLNAVEQVPLAEDNCEQYLEKFGQIWQAYPVKINLIRNIFLHLDRIALGATDTEILPLWECFMQIFQKTFFPNIFKEFKATKLFNALYMAMQKIMQRYPVDSPLRSLVDMLQTVHVSEEFAKFLISQLREHYNNERIDKVPKMNCNDYMEYCEDQINRYSQLVKVNFDEPSALKDVQATVTNCLIQQAIPEILTHDFDDLIDSDNISDIGRMFNLCRQCVGGEDEVRTQFSKYLKKRGEKLIATCPDEDLVSELLAFKKKVDFIMTGSFKSANDPVKMRQCLSDAFESFVNKQVDRSAELISKHFHTLLHSSNKNVSDDTTLDQMVDEAIVLFRYLRGKDVFEAYYKRGLAKRLFLERSASVDAEKMVLCKLKTECGSAFTYKLEGMFKDMDASENYGRLFNQYLEHMNKEKANFTARVITPEYWPTYDTYEINIPKEMRDTLTDYQDFYRVQHGNRNVKWHHGLASAVISASFRPGCKKELIATMYQTVILLLFNKCETWTVAEIVEHTKILEIEVVKNVLALLGGRDKPKVLQRVEGGGSEKKEGTVENLKNEKFVVNSKFTEKRCRVRIAQVNIKTAVEETKEVKEEVNSDRQYKIDAAVVRIMKARKQLNHQTLMTELLQQLRFPVSTADIKKRLESLIEREYISRDPEEASSYNYVA,not soluble
3,AGKATANAPTDAAITAASDFAALEKACAGRLGVTLLDTASGRRIGHRQDERFPMCSTFKSMLAATVLSQAERMPALLDRRVPVGEADLLSHAPVTRRHAGKDMTVRDLCRATIITSDNTAANLLFGVVGGPPAVTAFLRASGDTVSRSDRLEPELNSFAKGDPRDTTTPAAMAATLQRVVLGEVLQPASRQQLADWLIDNETGDACLRAGLGKRWRVGDKTGSNGEDARNDIAVLWPVAGGAPWVLTAYLQAGAISYEQRASVLAQVGRIADRLIG,soluble
4,NTRLLEEIEERRRSERFFHATIDSLTAPVAILNGEGDIVTVNRAWRKFADENGGLHPNHFIGYNYLGLCDNVKGDDAVTASAVARGIRELIAGRINEFHVDYPCHSPDEQRWFQVRVTRLENGSRGRVAVVHENIS,not soluble
5,MKDRFELVSKYQPQGDQPKAIEKLVKGIQEGKKHQTLLGATGTGKTFTVSNLIKEVNKPTLVIAHNKTLAGQLYSEFKEFFPNNAVEYFVSYYDYYQPEAYVPQTDTFIEKDASINDEIDKLRHSATSALFERRDVIIIASVSCIYGLGSPEEYREMVVSLRTEMEIERNELLRKLVDIQYARNDIDFQRGTFRVRGDVVEIFPASRDEHCVRVEFFGDEIERIREVDALTGEILGDRDHVAIFPASHFVTRAEKMEKAIQNIEKELEEQLKVMHENGKLLEAQRLEQRTRYDLEMMREMGFCSGIENYSRHLTLRPPGSTPYTLLDYFPDDFMIVVDESHVTIPQVRGMFNGDQARKQVLVDHGFRLPSALDNRPLRFEEFEKHMHNIVYVSATPGPYEIEHTDEMVEQIIRPTGLLDPLIDVRPIEGQIDDLIGEIQARIERNERVLVTTLTKKMSEDLTDYLKEIGIKVNYLHSEIKTLERIEIIRDLRLGKYDVLVGINLLREGLDIPEVSLVAILDADKEGFLRSERSLIQTIGRAARNAEGRVIMYADKITKSMEIAINETKRRREQQERFNEEHGITPKTINKEIRDVIRATVAAEDKAEYKTKAAPKLSKMTKKERQKVVEQMEHEMKEAAKALDFERAAELRDLLLELKAEG,soluble
